Measured values: patent EP4613763A1 (Chuang, Woei-jer, dated 2025)
Residue numbers refer to the chain shown, from its start.

B1: protein C7 (designed binder)
chain: VSDVPRDLEVVAATPTSLLISWRHPHFPTRYYRITYGETGGNSPVQEFTVPLQPPTATISGLKPGVDYTITVYAVTDGRNGRLLSIPISINYRT
B2: C7-LL4-His (designed binder, not shown: small tags and cut ends)
chain: B1 chain with K63C, V66C
modifications: Designed disulfide bond between Cys63 and Cys66.
notes: His-tagged C7 variant with one introduced disulfide bond
B3: C7-SS1-His (designed binder, not shown: small tags and cut ends)
chain: B1 chain with L19C, T58C
modifications: Designed disulfide bond between Cys19 and Cys58.
notes: as for B2
B4: C7-SL3-His (designed binder)
chain: B1 chain with G37C, V45C
modifications: Designed intramolecular disulfide bond Cys37-Cys45 (printed as G38/V46 in the Met-included numbering).
notes: His-tagged C7 variant with one introduced disulfide bond; not shown: N-terminal Met and C-terminal His tag of the expressed construct
B5: C7-SL4-His (designed binder, not shown: small tags and cut ends)
chain: B1 chain with D67C, N91C
modifications: Designed disulfide bond between Cys67 and Cys91.
notes: as for B2
B6: C7-SL2-His (designed binder)
chain: B1 chain with T35C, V45C
modifications: Designed intramolecular disulfide bond Cys35-Cys45 (printed as T36/V46 in the Met-included numbering).
notes: as for B4
B7: C7-LL3-His (designed binder, not shown: small tags and cut ends)
chain: B1 chain with T39C, D67C
modifications: Designed disulfide bond between Cys39 and Cys67.
notes: as for B2
B8: C7-SL1-His (designed binder, not shown: small tags and cut ends)
chain: B1 chain with L8C, S89C
modifications: Designed disulfide bond between Cys8 and Cys89.
notes: as for B2
B9: C7-SL1-LL3-His (designed binder, not shown: small tags and cut ends)
chain: B1 chain with L8C, T39C, D67C, S89C
modifications: Designed disulfide bonds Cys8-Cys89 and Cys39-Cys67.
notes: His-tagged C7 variant with two introduced disulfide bonds
B10: C7-SL1-LL2-His (designed binder, not shown: small tags and cut ends)
chain: B1 chain with L8C, S17C, S60C, S89C
modifications: Designed disulfide bonds Cys8-Cys89 and Cys17-Cys60.
notes: as for B9
B11: C7-LL2-His (designed binder, not shown: small tags and cut ends)
chain: B1 chain with S17C, S60C
modifications: Designed disulfide bond between Cys17 and Cys60.
notes: as for B2

These binders were tested against T1, vascular endothelial growth factor receptor 2 (UniProt P35968 20-764, limits assumed) (assay: ELISA, binding affinity to VEGFR2).
T1 construct: also called VEGFR2; kinase insert domain receptor
T1 sequence (P35968 20-764 limits assumed): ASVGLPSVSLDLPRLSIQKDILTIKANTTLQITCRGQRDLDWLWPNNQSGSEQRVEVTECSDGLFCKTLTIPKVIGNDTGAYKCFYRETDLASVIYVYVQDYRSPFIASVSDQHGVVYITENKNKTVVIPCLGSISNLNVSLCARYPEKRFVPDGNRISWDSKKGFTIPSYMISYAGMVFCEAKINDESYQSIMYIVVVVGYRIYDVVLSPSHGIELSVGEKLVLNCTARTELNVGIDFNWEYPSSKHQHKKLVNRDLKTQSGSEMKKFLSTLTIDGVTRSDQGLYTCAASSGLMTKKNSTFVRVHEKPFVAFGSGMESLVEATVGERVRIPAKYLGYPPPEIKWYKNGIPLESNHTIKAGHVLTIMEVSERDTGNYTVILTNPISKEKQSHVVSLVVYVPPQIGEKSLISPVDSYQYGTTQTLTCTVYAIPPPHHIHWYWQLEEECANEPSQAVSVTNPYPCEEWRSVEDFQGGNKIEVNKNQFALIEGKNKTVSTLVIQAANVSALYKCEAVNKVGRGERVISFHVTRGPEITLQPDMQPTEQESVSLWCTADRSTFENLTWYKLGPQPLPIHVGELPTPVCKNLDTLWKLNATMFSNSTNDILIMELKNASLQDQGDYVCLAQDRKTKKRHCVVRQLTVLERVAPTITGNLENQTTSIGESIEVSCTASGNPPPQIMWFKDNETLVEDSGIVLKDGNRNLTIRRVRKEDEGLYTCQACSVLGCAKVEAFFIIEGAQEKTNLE

IC50 [nM]	Binder
16.8	B1
16.6	B2
17.5	B3
21.3	B4
18.5	B5
17.1	B6
9.8	B7
17.6	B8
19.2	B9
12.8	B10
18.9	B11
